Holding throughout (test): cleavage_in_vitro; rate vs Pfu FEN1
Series [1] deals with T1, Mja FEN1 (Methanococcus jannaschii, UniProt Q58839 SEQ:1-326).
T1 sequence: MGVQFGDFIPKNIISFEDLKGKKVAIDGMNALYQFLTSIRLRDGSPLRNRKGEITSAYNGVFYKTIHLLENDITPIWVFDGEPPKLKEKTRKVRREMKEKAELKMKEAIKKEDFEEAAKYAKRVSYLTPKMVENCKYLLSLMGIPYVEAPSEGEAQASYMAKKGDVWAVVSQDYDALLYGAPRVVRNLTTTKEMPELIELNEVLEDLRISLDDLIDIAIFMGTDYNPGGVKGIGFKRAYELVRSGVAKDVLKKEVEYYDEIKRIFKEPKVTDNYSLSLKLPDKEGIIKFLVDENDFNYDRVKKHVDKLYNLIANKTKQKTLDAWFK
The procedure: (§1) For the evaluation of chimeric enzymes, standard tests were performed to measure the performance and specificity of the enzymes. […] 10 μl reactions are run at 59 C for between 5 to 60 minutes depending on the enzyme. Reactions are stopped by the addition of 10 μl of 95% formamide, 0.02% methyl violet. 1 μl of the mixture is run on a denaturing 20% acrylamide gel and electrophoresed for 15 minutes or until good separation is achieved between cleaved and uncleaved probe. The gels are scanned using an FMBIO fluorescent gel scanner and the bands are quantified with FMBIOAnalysis software. Cleavage rates are determined from the percent probe cleaved. Cleavage rate for the INVADER substrate is defined as the number of probe molecules cleaved per target molecule per minute. In Table 5, below, the cleavage rates for the mutant enzymes are compared to the cleavage rates for unmodified Pfu FEN1 enzyme on the INVADER assay and X-structure substrates.
(§2) The X-structure substrate is used to determine the amount of background cleavage an enzyme will carry out in an INVADER reaction. It mimics the structure created by uncut primary probe and secondary FRET cassette in the INVADER squared reaction. […] 10 μl reactions are run at 59 C for between 3 to 30 minutes depending on the enzyme. Reactions are stopped by the addition of 10 μl of 95% formamide, 0.02% methyl violet. 1 μl of the mixture is run on a denaturing 20% acrylamide gel and electophoresed for 15 minutes or until good separation is achieved between cleaved and uncleaved probe. The gels are scanned using an FMBIO fluorescent gel scanner and the bands are quantified with FMBIOAnalysis software. Cleavage rates are determined from the percent probe cleaved.

Series [2] has as its target T2, Pfu4M FEN1 (Pyrococcus furiosus, UniProt O93634 SEQ:1-340).
T2 chain: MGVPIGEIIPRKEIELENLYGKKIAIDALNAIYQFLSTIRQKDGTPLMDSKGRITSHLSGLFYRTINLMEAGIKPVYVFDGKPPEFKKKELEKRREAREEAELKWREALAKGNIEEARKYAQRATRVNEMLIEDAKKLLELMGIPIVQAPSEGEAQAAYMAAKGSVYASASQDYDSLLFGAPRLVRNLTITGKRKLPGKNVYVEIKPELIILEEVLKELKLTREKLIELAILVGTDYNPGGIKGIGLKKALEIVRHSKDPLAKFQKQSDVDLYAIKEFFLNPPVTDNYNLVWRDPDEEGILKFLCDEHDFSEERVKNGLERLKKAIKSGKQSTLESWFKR
The procedure: as §1, §2

Series [3] deals with T3, Pho2M FEN1 (Pyrococcus horikoshii, UniProt O50123 SEQ:1-343).
T3 chain: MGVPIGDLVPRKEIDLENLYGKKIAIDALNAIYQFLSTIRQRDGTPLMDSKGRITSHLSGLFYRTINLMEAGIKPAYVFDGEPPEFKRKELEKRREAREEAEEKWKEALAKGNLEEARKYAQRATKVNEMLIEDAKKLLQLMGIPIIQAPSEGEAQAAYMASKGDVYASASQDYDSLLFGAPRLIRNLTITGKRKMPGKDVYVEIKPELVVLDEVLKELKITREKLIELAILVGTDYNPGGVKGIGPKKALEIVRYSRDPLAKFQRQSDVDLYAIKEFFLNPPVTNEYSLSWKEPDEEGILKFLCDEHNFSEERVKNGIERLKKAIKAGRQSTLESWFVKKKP
The procedure:
as §1, §2

Series [4] addresses T4, Pfu3M FEN1 (Pyrococcus furiosus, UniProt O93634 SEQ:1-340).
T4 chain: T2 chain with N113E
The procedure: as §1, §2

For series [5], the target named is T5, Pho3M FEN1 (Pyrococcus horikoshii, UniProt O50123 SEQ:1-343).
T5 chain: T3 chain with A110E
The procedure: as §1, §2

For series [6], the target named is T6, Pfu2M FEN1 (Pyrococcus furiosus, UniProt O93634 SEQ:1-340).
T6 chain: T2 chain with A110E, N113E
The procedure: as §1, §2

Setting [7] is: label: 5'-biotin target, 5'-TET probe, hairpin target-INVADER with overlapping probe flap.

Where a chain is given by its changes, count along the chain named.

B1: X-structure 203-81-2/203-91-2 (structured_DNA)
DNA 1: TTTTCAACTGCTTAGAGAATCTAAGCAGTTGGTGCGCCTCGTTAA
DNA 2: AACGAGGCGCACATT
modifications: 3'-NH2 on first strand
With B1, the cleavage rate turned out to be 203 in series [1] (label: 5'-TET, X-structure); 62 in series [2] (label: 5'-TET, X-structure); 31 in series [3] (label: 5'-TET, X-structure); 4.9 in series [4] (label: 5'-TET, X-structure); 6.6 in series [5] (label: 5'-TET, X-structure); 3 in series [6] (label: 5'-TET, X-structure).

B2: INVADER substrate 594-12-1/203-91-1 (structured_DNA)
DNA 1: TTTTTCACGGCAGTTGGTGCGCCTCGGAACGAGGCGCACA
DNA 2: TTTTCAACTGCCGTGA
In the case of B2, the cleavage rate in series [1] (setting [7]) is 1.9; in series [2] (setting [7]) it was 2.2; in series [3] (setting [7]), 1.6; in series [4] (setting [7]), 1.8; in series [5] (setting [7]), 0.95; in series [6] (setting [7]) it was 1.4.

(Values after US20050048527, “Endonuclease-substrate complexes” (Third Wave Technologies, Inc., published 2005).)
